Data on two molecules can be found in US20160159869A1 (NORTHWESTERN UNIVERSITY, published 2016).

As usually defined, the kon is the rate constant with which the complex forms. Usually koff stands for the rate constant with which the complex falls apart. The term Kd denotes a measure of binding affinity in units of concentration.

The target in test [1] is Recombinant human BMP-2 (Medtronic Sofamor Danek) (human) (UniProt P12643). In words: capture of BMP-2 by a 20 µL PA gel from medium containing 25 ng BMP-2, 37 °C, 4 h, sandwich ELISA of the medium. Background: An ELISA detects its analyte on a solid surface through an enzyme-linked reagent.
Test [2] deals with T1, Human recombinant BMP-2 with hexahistidine-tag fused at the C-terminus (AdipoGen) (human, UniProt P12643 283-396).
T1 construct: Immobilised on a Ni2+-NTA chip for SPR; also called His-BMP-2; hexahistidine-tagged BMP-2
T1 sequence: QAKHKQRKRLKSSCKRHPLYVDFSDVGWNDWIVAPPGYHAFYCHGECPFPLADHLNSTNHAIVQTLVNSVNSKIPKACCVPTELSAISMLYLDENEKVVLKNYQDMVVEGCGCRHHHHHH
In words: SPR (Biacore 3000): His-BMP-2 captured on Ni2+-NTA chip, PA injected at pH 8.4. Fit with the 2:1 binding model. Column ka. On the procedure: (§1) The SPR measurements were performed using a Biacore 3000 instrument (GE Healthcare, Pittsburgh, Pa.) equipped with a NTA Sensor Chip (GE Healthcare) at 25° C. HBS-P eluent buffer and HBS-EP dispenser buffer were purchased from GE Healthcare. NiCl 2 solution (500 μM in eluent buffer), elution buffer (300 mM imidazole and 500 mM NaCl in water), and regeneration buffer (10 mM HEPES, 150 mM NaCl, 0.005% polysorbate 20, 350 mM EDTA at pH 7.4) were prepared according to Biacore specifications. Human recombinant BMP-2 with hexahistidine-tag fused at the C-terminus (AdipoGen, San Diego, Calif.) was initially reconstituted in PBS at 20 μg/ml, and diluted to 500 nM in eluent buffer.
(§2) Ni²⁺ was first loaded on the NTA chip for 5 min at a flow rate of 20 μl/min, and then His-BMP-2 for 1.25 min at 4 μl/min. Afterwards, each PA sample was injected for 2 min at […], followed by 5 min dissociation at […]. […] To compare binding affinity of the PAs, the sensograms were processed and analyzed with BIAevaluation 4.1 software. The sensogram from blank injection was subtracted from the PA sensograms, and the apparent equilibrium dissociation constant KD was determined using 2:1 binding model, which assumes bivalent analyte interaction with two dissociation constants kd,1 and kd,2, where kd,1 is more dominant.
For orientation: Surface plasmon resonance follows binding to a sensor surface in real time, without labels.

In test [3] the target is T1, Human recombinant BMP-2 with …. In words: SPR (Biacore 3000): His-BMP-2 captured on Ni2+-NTA chip, PA injected at pH 8.4. Fit with the 2:1 binding model. Column kd,1 (major dissociation rate constant). On the procedure: as §1, §2
Test [4] shares this target. In words: SPR (Biacore 3000), His-BMP-2 immobilised on Ni2+-NTA chip, PA injected at pH 8.4, 2:1 binding model, KD from the major dissociation rate and ka; diluent PA (no binding segment), prepared at pH 8.4. As to the method: As a control, the BMP-2-binding PA ([…], pH 7.4) was injected to a bare NTA-dextran chip, and we observed non-specific binding of the PA to the surface (FIG. 4). It is contemplated that the fibrillar nanostructures can be entangled to the NTA-dextran surface. To circumvent this, the BMP-2-binding PA was prepared at pH 8.4, where more glutamic acid residues are deprotonated to induce greater electrostatic repulsion between the PA molecules, and sonicated the solution to further break up the supramolecular assembly. […] The best fit was obtained by using the 2:1 binding model, which had two dissociation constants: a major dissociation constant (k_{d,1}) and a minor dissociation constant (k_{d,2}) with the ratio of their contributions (R₁/R₂).
The SPR measurements were performed using a Biacore 3000 instrument (GE Healthcare, Pittsburgh, Pa.) equipped with a NTA Sensor Chip (GE Healthcare) at 25° C. HBS-P eluent buffer and HBS-EP dispenser buffer were purchased from GE Healthcare. NiCl 2 solution (500 μM in eluent buffer), elution buffer (300 mM imidazole and 500 mM NaCl in water), and regeneration buffer (10 mM HEPES, 150 mM NaCl, 0.005% polysorbate 20, 350 mM EDTA at pH 7.4) were prepared according to Biacore specifications. […]

C16 = C16 alkyl tail covalently attached at the N-terminus

Consider “diluted BMP-2-binding PA (D-BMP2b-PA), co-assembly of BMP2b-PA and diluent PA at 1:1 weight ratio”, for which, in test [1], the amount of BMP-2 bound on the gel after 4 h turned out to be 15.5 ng.

B1: diluent PA, C16-V3A3E3-COOH (peptide)
peptide: C16-VVVAAAEEE-OH
notes: In SPR it was used as a solution at pH 8.4; In the capture assay it was a 1 wt % nanofiber gel formed with CaCl2; also called diluent PA gel
In the case of B1, the kon in test [2] stood at 5300 M⁻¹ s⁻¹. Moreover, in test [3], the koff was 0.011 s⁻¹. Moreover, the Kd in test [4] came out at 2100 nM.
